# US20160340743
# B1: BCAM-AKT2-FLAG (cloned from patient S4, expressed in OVCAR8 cells) (protein)
# chain: EVRLSVPPLVEVMRGKSVILDYTPTGTHDHYMLEWFLTDRSGARPRLASAEMQGSELQVTMHDTRGRSPPYQLDSQGRLVLAEAQVGDERDYVCVVRAGAAGTAEATARLNVFAKPEATEVSPNKGTLSVMEDSAQEIATCNSRNGNPAPKITWYRNGQRLEVPVEMNPEGYMTSRTVREASGLLSLTSTLYLRLRKDDRDASFHCAAHYSLPEGRHGRLDSPTFHLTLHYPTEHVQFWVGSPSTPAGWVREGDTVQLLCRGDGSPSPEYTLFRLQDEQEEVLNVNLEGYLTLEGVTRGQSGTYGCRVEDYDAADDVQLSKTLELRVAYLDPLELNEGKVLSLPLNSSAVVNCSVHGLPTPALRWTKDSTPLGDGPMLSLSSITFDSNGTYVCEASLPTVPVLSRTQNFTLLVQGSPGLKTAEIEPKADGSWREGDEVTLICSARGHPDPKLSWSQLGGSPAEPIPGRQGWVSSSLTLKVTSALSRDGISCEASNPHGNKRHVFHFGTVSPQTSQAGVAVMAVAVSVGLLLLVVAVFYCVRRKGGPCCRQRREKGAPEEWMRAIQMVANSLKQRAPGEDPMDYKCGSPSDSSTTEEMEVAVSKARAKVTMNDFDYLKLLGKGTFGKVILVREKATGRYYAMKILRKEVIIAKDEVAHTVTESRVLQNTRHPFLTALKYAFQTHDRLCFVMEYANGGELFFHLSRERVFTEERARFYGAEIVSALEYLHSRDVVYRDIKLENLMLDKDGHIKITDFGLCKEGISDGATMKTFCGTPEYLAPEVLEDNDYGRAVDWWGLGVVMYEMMCGRLPFYNQDHERLFELILMEEIRFPRTLSPEAKSLLAGLLKKDPKQRLGGGPSDAKEVMEHRFFLSINWQDVVQKKLLPPFKPQVTSEVDTRYFDDEFTAQSITITPPDRYDSLGLLELDQRTHFPQFSYSASIRE
# Molecular target: GSK-3 fusion protein (kinase substrate, Nonradioactive AKT Kinase Assay Kit, Cell signaling 9840)
protein,measurement,value
B1,"phosphorylation of GSK-3 (in vitro kinase assay, western blot with anti-phospho-GSK-3)",incubation with immunoprecipitated BCAM-AKT2 led to efficient phosphorylation of GSK-3
